Assay results published in patent US20120270273.

Key:
Assay in all cases: cell_activity
[1] = test system: ZF-VP64 (erbB-2 zinc finger) (synthetic); conditions: mCherry reporter induction, 293FT; positive control
[2] = test system: cMyc-dTALE (synthetic (Xanthomonas campestris pv. armoraciae Hax3 scaffold)); conditions: mCherry reporter, 293FT
[3] = test system: Klf4-dTALE (synthetic (Xanthomonas campestris pv. armoraciae Hax3 scaffold)); conditions: mCherry reporter; endogenous KLF4 mRNA up 2.2±0.1 fold (p227)
[4] = test system: Sox2-dTALE (synthetic (Xanthomonas campestris pv. armoraciae Hax3 scaffold)); conditions: mCherry reporter; endogenous SOX2 mRNA up 5.5±0.1 fold (p227)

With erbB-2 promoter ZF site the activity [1] was 16 fold.
c-MYC proximal promoter site showed an activity [2] greater than 20 fold.
In the case of KLF4 proximal promoter site, the activity [3] is reported as greater than 20 fold.
For SOX2 proximal promoter site, the activity [4] was greater than 20 fold.
